Substitutions are numbered along the chain they refer to.
B1: human TRAF7 ZF-CC (fragment 221–379 aa) (domain or fragment, UniProt Q6Q0C0 221-379, looked up)
chain: DHEGSCDYRPVRCPNNPSCPPLLRMNLEAHLKECEHIKCPHSKYGCTFIGNQDTYETHLETCRFEGLKEFLQQTDDRFHEMHVALAQKDQEIAFLRSMLGKLSEKIDQLEKSLELKFDVLDENQSKLSEDLMEFRRDASMLNDELSHINARLNMGILGS
notes: source: E. coli BL21 (DE3), purified (nickel-NTA, Superdex 200 size-exclusion chromatography)
B2: human TRAF7 CC (270–379 aa) F337S (domain or fragment, UniProt Q6Q0C0 270-379, looked up)
chain: GNQDTYETHLETCRFEGLKEFLQQTDDRFHEMHVALAQKDQEIAFLRSMLGKLSEKIDQLEKSLELKSDVLDENQSKLSEDLMEFRRDASMLNDELSHINARLNMGILGS
notes: as for B1
B3: human TRAF7 CC (fragment 270–379 aa) (domain or fragment, UniProt Q6Q0C0 270-379, looked up)
chain: B2 chain with S68F
notes: Cloned in pET32M3C; tags 'were cleaved by HRV 3C protease when needed'; also called TRAF7 CC region; TRAF7 coiled-coil domain; source: E. coli BL21 (DE3), purified (nickel-NTA, Superdex 200 size-exclusion chromatography)
B4: human TRAF7 CC (270–379 aa) Q310L (domain or fragment, UniProt Q6Q0C0 270-379, looked up)
chain: B2 chain with Q41L, S68F
notes: as for B1
B5: human TRAF7 CC (270–379 aa) R371G (domain or fragment, UniProt Q6Q0C0 270-379, looked up)
chain: B2 chain with S68F, R102G
notes: Variant found in patients with developmental disorders; source: E. coli BL21 (DE3), purified (nickel-NTA, Superdex 200 size-exclusion chromatography)
B6: human TRAF7 CC (270–379 aa) I368S (domain or fragment, UniProt Q6Q0C0 270-379, looked up)
chain: B2 chain with S68F, I99S
notes: as for B1
B7: human TRAF7 CC (270–379 aa) K346E (domain or fragment, UniProt Q6Q0C0 270-379, looked up)
chain: B2 chain with S68F, K77E
notes: as for B5

Molecular target: the molecule itself
Assay: SEC-MALS; Superdex 200 gel filtration in 50 mM Tris pH 8.0, 100 mM NaCl, 10 mM EDTA, 1 mM DTT; three-angle light scattering (mini-DAWN TRISTAR) and refractive index detector; self-association (trimer)

Protein	stoichiometry N	binding result
B1	3	–
B2	–	binds
B3	3	–
B4	–	binds
B5	–	binds
B6	–	binds
B7	–	binds

— paper PMC11216086, “The structure of TRAF7 coiled-coil trimer provides insight into its function in zebrafish embryonic development” (Journal of Molecular Cell Biology, 2024)
